koff data for 16 molecules are collected here from US20220380463A1 (Adimab, published 2022).

The chains are these.
T1: Cynomolgus CD3εδ Fc heterodimer (Cy CD3ε Fc / CD3δ Fc-HIS) (cynomolgus, UniProt Q95LI8 22-100)
T1 chain 1: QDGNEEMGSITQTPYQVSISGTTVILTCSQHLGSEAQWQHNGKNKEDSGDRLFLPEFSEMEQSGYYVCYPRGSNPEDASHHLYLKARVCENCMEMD
T1 chain 2: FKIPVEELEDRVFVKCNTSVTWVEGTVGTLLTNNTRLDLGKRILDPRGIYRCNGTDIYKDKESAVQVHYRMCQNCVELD

B1: SAD10319_P05_D05 (ADI-57410) (antibody, V domains shown)
VH: QVQLVQSGAEVKKPGASVKVSCKASGYTFADYAMHWVRQAPGHRLEWMGDIIAGTGATKYSQKFQGRVTITRDTSASTAYMELSSLRSEDTAVYYCARDHYGHYFYDVWGQGTLVTVSS
VL: DIVMTQSPDSLAVSLGERATINCKSSQSLLNARTGKNYLAWYQQKPGQPPKLLIYWASTRESGVPDRFSGSGSGTDFTLTISSLQAEDVAVYYCKQSYSRRTFGGGTKVEIK
notes: IgG; also called Ab138
B2: SAD10319_P06_B11 (ADI-57422) (antibody, V domains shown)
VH: B1 VH with A30H, D31S, A33D, H43Q, D50W, I52D, K59T, H100A
VL: B1 VL
notes: IgG; also called Ab151
B3: SAD10319_P06_C10 (ADI-57423) (antibody, V domains shown)
VH: B1 VH with A30T, D31E, A33V, H43P, I52D, H100A, G102H
VL: B1 VL
notes: IgG; also called Ab152
B4: SAD10319_P06_E08 (ADI-57426) (antibody, V domains shown)
VH: B1 VH with A30I, D31K, A33V, H43Q, I52D, A53P, G54D, K59E, H100D, G102H
VL: B1 VL
notes: IgG; also called Ab155
B5: SAD10319_P06_A11 (ADI-57420) (antibody, V domains shown)
VH: QVQLVQSGAEVKKPGASVKVSCKASGYTFDSIAMHWVRQAPGQRLEWMGWINPATGNTDYSQKFQGRVTITRDTSASTAYMELSSLRSEDTAVYYCARDAYGHYFYDHWGQGTLVTVSS
VL: B1 VL
notes: IgG; also called Ab149
B6: SAD10319_P05_G03 (ADI-57415) (antibody, V domains shown)
VH: B5 VH with D30H, I32Y, A33N, Q43H, A54D, N57A, H103R, H108V
VL: B1 VL
notes: IgG; also called Ab143
B7: SAD10319_P05_F01 (ADI-57412) (antibody, V domains shown)
VH: B1 VH with A30T, Y32D, H43Q, R44S, D50W, I52D, A57N, K59Y, R98H, H100A
VL: B1 VL
notes: IgG; also called Ab140
B8: SAD10319_P05_H06 (ADI-57417) (antibody, V domains shown)
VH: QVQLVQSGAEVKKPGASVKVSCKASGYTFTEYDMHWVRQAPGPTLEWMGWIDAGTGATVYSQKFQGRVTITRDTSASTAYMELSSLRSEDTAVYYCARDAYGRYFYDHWGQGTLVTVSS
VL: B1 VL
notes: IgG; also called Ab145
B9: SAD10319_P05_G04 (ADI-57416) (antibody, V domains shown)
VH: B5 VH with D30T, I32Y, A33G, N52D, A54V, N57A, Y101H, H103R
VL: B1 VL
notes: IgG; also called Ab144
B10: SAD10319_P06_D12 (ADI-57425) (antibody, V domains shown)
VH: B1 VH with A30N, D31R, A33V, H43Q, D50G, I52D, H100A, Y101H, G102R
VL: B1 VL
B11: SAD10319_P06_C12 (ADI-57424) (antibody, V domains shown)
VH: B1 VH with A30D, D31S, A33E, D50W, I52N, A53P, G54L
VL: B1 VL
notes: IgG; also called Ab153
B12: SAD10319_P06_B10 (ADI-57421) (antibody, V domains shown)
VH: B1 VH with A30T, D31E, A33V, H43Q, I52D, H100A, G102H
VL: B1 VL
notes: IgG; also called Ab150
B13: SAD10319_P05_G01 (ADI-57413) (antibody, V domains shown)
VH: B8 VH with T30N, E31N, D33A, P43Q, T44S, A57N, V59D, Y101H, G102H, H108V
VL: B1 VL
B14: SAD10319_P05_E04 (ADI-57411) (antibody, V domains shown)
VH: B5 VH with D30T, S31G, I32Y, A33E, A54S, D59V, A100H, H108V
VL: B1 VL
notes: IgG; also called Ab139
B15: SAD10319_P06_A10 (ADI-57419) (antibody, V domains shown)
VH: B5 VH with D30T, S31G, I32Y, A33E, A54V, N57A, D59A
VL: B1 VL
notes: IgG; also called Ab148
B16: SAD10319_P05_G02 (ADI-57414) (antibody, V domains shown)
VH: B5 VH with D30T, S31T, I32Y, N52D, A54V, D59K, A100H, H103R
VL: B1 VL
notes: IgG; also called Ab142

Positions count from the first letter of the chain named.

This experiment deals with T1, Cynomolgus CD3εδ Fc heterodimer (Cy …). In words: BLI (Octet), IgG on AHC sensor, pH 6.0. In general terms: Biolayer interferometry detects binding as a change in optical thickness at a sensor tip.
Take B1: the koff is 0.0158 s⁻¹. In the case of B2 it was 0.0101 s⁻¹. The molecule B3 displayed a koff of 0.00318 s⁻¹. In the case of B4 it was 0.0105 s⁻¹; in that of B5, 0.00279 s⁻¹.

The molecule B6 showed an off-rate (koff) of 0.0167 s⁻¹. Molecule B7 showed a koff of 0.0214 s⁻¹. B8 gave a koff of 0.0104 s⁻¹. In the case of B9 it was 0.00389 s⁻¹; in that of B10, 0.0192 s⁻¹; in that of B11, 0.00756 s⁻¹. B12: the off-rate (koff) came out at 0.002 s⁻¹. Against the preceding molecule, the koff is about 3.8-fold lower. In turn, B13 gave a koff of 0.0236 s⁻¹. In the case of B14 it was 0.00373 s⁻¹. Turning to B15, the off-rate (koff) is 0.0246 s⁻¹. In the case of B16 it was 0.0156 s⁻¹.

The koff is the first-order rate constant of dissociation. Higher therefore signals a short-lived complex.
